The target of this assay is TNF-receptor-1 (TNF-R1) (human) (UniProt P19438). Nature of the assay: cell-based or functional assay.
TNF-receptor-1 (TNF-R1) (human), sequence (P19438 30-455): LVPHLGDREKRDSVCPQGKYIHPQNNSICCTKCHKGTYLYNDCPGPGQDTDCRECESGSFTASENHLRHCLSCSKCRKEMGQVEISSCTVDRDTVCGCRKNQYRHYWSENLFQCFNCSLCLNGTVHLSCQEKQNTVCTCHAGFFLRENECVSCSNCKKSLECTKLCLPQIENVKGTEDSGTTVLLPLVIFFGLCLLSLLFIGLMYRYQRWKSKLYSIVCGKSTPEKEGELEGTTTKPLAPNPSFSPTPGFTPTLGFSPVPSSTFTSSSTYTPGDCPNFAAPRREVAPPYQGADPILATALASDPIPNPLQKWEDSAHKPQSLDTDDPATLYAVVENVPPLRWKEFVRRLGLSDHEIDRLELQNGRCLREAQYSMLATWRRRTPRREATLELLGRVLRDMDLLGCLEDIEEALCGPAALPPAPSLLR

With “Recombinant human cytokine IL-32γ (from UniProt P24001 31-234) (ligand)”, the Relative fold change in phosphorylation of the TNF-R1 S274 array peptide (kinome profiling, THP-1 cells, 20 ng/mL IL-32, 15 min) came out at 4.7 fold.

These data come from patent US20130123201A1, “MODULATION OF CYTOKINE-INDUCED CHRONIC INFLAMMATORY RESPONSES” (UNIVERSITY OF MANITOBA, priority 2010, published 2013).
